Data as given in paper PMC6423718.

Biological target: bZIP domain of chicken CREB3 (chCREB3), Residues 206-280, His-tagged (chicken)
Experiment: crystal structure; DNA-free form; sitting-drop vapor diffusion at 4°C, 43% v/v MPD, 100 mM tri-sodium citrate pH 5.6, 10 mM magnesium chloride; molecular replacement; 3.95 Å

bZIP domain of chicken CREB3 (chCREB3), Residues 206-280, His-tagged (domain or fragment)
stoichiometry N: 2
